Data: patent US20250019439A1 (Adimab, published 2025)

Columns and labels:
[1] = biological target: T1, ADI-70326; test: SPR Carterra, CHO anti-ID
T1 construct: anti-CD3 antibody made in CHO cells, captured by anti-human Fc
Experimental: (§1) Kinetic analysis was conducted at 25° C. in an HBSTE running buffer system (Carterra Cat #3630) using a Carterra LSA (Carterra USA, Salt Lake City, UT). The sample compartment was maintained at 20° C. for the duration of each experiment.
(§2) For antibody capture experiments, a goat anti-human Fc antibody (Jackson ImmunoResearch) was covalently coupled to an HC30M sensor chip surface via standard amine coupling (1:1 EDC:NHS) and then blocked with ethanolamine (1.0 M, pH 8.5). Covalent coupling steps were performed in 25 mM MES buffer (Carterra, Cat #3625) plus 0.05% Tween20. The anti-CD3 antibodies (100 nM in running buffer) were flowed over discrete regions of interest on the chip surface for 5 minutes. […] Dissociation of the anti-idiotype antibodies was monitored for 300s. Several blank buffer samples were injected over the entire chip surface at the start of each non-regenerative kinetic cycle. The preceding blank buffer injection was used for blank surface subtraction. At the end of each non-regenerative kinetic cycle, all surfaces were regenerated via two 30s injections of 10 mM glycine, pH 1.7.
(§3) In Tables 10A-10C, anti-CD3 antibodies are listed by ADI number or CTL number in the first column. […] CTL-62223 is mosunetuzumab, CTL-62227 is odronextamab, CTL-62228 is glofitamab, and CTL-62240 is ONO-4685. […] “W.B.” means weak binding under the conditions of this assay and thus a KD was unable to be assigned. “N.B.” means no binding under the conditions of this assay.

[2] = biological target: T2, ADI-26920 IgG; test: SPR Carterra avidity, CHO anti-ID
T2 construct: anti-CD3 IgG
T2 sequence (VH, as listed by the source limits assumed, chain 1 of 2): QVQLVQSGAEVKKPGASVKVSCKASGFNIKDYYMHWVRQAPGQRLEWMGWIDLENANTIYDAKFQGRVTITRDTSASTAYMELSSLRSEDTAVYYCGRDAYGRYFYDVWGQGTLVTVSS
T2 sequence (VL, as listed by the source limits assumed, chain 2 of 2): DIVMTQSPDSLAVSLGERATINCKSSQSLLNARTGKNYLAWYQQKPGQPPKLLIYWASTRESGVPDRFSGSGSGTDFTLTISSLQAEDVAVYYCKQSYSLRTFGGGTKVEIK
Experimental: as §1, §2, §3

[3] = biological target: T3, ADI-26919; test: SPR Carterra avidity, CHO anti-ID
T3 construct: anti-CD3 antibody made in CHO cells, captured by anti-human Fc
T3 sequence (VH, as listed by the source limits assumed, chain 1 of 2): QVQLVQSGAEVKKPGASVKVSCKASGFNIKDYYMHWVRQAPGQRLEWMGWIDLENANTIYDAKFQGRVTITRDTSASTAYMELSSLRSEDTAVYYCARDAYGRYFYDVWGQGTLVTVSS
Experimental: as §1, §2, §3

[4] = biological target: T4, ADI-67447; test: SPR Carterra avidity, CHO anti-ID
T4 construct: anti-CD3 antibody made in CHO cells, captured by anti-human Fc
T4 sequence (VH, as listed by the source limits assumed, chain 1 of 2): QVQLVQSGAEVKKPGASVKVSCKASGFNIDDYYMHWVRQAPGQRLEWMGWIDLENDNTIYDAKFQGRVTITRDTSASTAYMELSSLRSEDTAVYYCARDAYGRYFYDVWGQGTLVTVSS
T4 sequence (VL, as listed by the source limits assumed, chain 2 of 2): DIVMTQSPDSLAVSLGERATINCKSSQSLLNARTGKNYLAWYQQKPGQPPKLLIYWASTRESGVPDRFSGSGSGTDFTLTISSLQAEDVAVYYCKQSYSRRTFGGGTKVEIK
Experimental: as §1, §2, §3

[5] = biological target: T5, ADI-76357; test: SPR Carterra avidity, CHO anti-ID
T5 construct: anti-CD3 antibody made in CHO cells, captured by anti-human Fc
T5 sequence (VH, as listed by the source, chain 1 of 2): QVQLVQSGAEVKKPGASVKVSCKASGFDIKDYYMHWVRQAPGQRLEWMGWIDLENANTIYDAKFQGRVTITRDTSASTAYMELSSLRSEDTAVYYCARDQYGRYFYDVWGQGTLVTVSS
Experimental: as §1, §2, §3

[6] = biological target: T6, ADI-26924; test: SPR Carterra avidity, CHO anti-ID
T6 construct: anti-CD3 antibody made in CHO cells, captured by anti-human Fc
T6 sequence (VH, as listed by the source, chain 1 of 2): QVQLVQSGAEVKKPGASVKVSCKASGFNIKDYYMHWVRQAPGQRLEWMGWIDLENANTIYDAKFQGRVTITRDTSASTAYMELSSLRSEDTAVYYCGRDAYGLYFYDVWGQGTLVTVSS
Experimental: as §1, §2, §3

[7] = biological target: T7, ADI-26943; test: SPR Carterra avidity, CHO anti-ID
T7 construct: anti-CD3 antibody made in CHO cells, captured by anti-human Fc
T7 sequence (VH, as listed by the source, chain 1 of 2): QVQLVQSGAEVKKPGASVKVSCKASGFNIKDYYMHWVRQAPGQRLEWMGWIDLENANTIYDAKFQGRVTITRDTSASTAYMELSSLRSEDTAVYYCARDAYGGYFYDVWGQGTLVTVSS
T7 sequence (VL, as listed by the source, chain 2 of 2): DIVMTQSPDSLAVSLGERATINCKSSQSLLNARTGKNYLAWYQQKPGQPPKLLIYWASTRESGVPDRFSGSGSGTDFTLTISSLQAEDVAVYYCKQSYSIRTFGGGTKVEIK
Experimental: as §1, §2, §3

[8] = biological target: T8, CTL-62240; test: SPR Carterra, CHO anti-ID
T8 construct: also called ONO-4685
T8 sequence (VH, as listed by the source, chain 1 of 2): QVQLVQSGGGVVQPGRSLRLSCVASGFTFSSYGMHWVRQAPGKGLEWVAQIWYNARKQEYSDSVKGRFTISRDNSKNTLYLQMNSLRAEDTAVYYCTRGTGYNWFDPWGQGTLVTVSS
T8 sequence (VL, as listed by the source, chain 2 of 2): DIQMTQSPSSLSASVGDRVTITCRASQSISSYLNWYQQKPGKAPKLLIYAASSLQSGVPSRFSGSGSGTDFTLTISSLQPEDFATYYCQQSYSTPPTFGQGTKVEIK
Experimental: as §1, §2, §3

[9] = biological target: T9, CTL-62227; test: SPR Carterra, CHO anti-ID
T9 construct: also called odronextamab
T9 sequence (VH, as listed by the source, chain 1 of 2): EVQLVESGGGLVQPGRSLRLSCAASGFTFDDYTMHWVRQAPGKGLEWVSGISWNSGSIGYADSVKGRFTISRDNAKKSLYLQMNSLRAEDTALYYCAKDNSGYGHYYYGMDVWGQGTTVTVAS
T9 sequence (VL, as listed by the source, chain 2 of 2): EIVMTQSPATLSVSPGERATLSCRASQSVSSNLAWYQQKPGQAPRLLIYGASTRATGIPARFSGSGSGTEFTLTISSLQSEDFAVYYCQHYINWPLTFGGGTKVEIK
Experimental: as §1, §2, §3

[10] = biological target: T10, CTL-62228; test: SPR Carterra, CHO anti-ID
T10 construct: also called glofitamab
Experimental: as §1, §2, §3

[11] = biological target: T11, ADI-76362; test: SPR Carterra avidity, CHO anti-ID
T11 construct: anti-CD3 antibody made in CHO cells, captured by anti-human Fc
T11 sequence (VH, as listed by the source, chain 1 of 2): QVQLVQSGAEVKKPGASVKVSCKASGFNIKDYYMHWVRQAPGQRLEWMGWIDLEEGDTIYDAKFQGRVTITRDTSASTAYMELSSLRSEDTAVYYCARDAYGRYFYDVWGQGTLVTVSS
Experimental: as §1, §2, §3

[12] = biological target: T12, ADI-76360; test: SPR Carterra avidity, CHO anti-ID
T12 construct: anti-CD3 antibody made in CHO cells, captured by anti-human Fc
T12 sequence (VH, as listed by the source, chain 1 of 2): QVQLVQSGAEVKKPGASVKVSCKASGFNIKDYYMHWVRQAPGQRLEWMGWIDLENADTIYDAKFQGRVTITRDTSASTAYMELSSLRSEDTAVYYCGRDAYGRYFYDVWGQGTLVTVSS
Experimental: as §1, §2, §3

[13] = biological target: T13, ADI-48587; test: SPR Carterra avidity, CHO anti-ID
T13 construct: pH-dependent anti-CD3 antibody made in CHO cells
T13 sequence (VH, as listed by the source, chain 1 of 2): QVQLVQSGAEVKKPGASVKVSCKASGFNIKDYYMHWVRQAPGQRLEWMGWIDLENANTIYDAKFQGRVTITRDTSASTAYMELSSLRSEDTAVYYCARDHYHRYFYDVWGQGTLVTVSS
T13 sequence (VL, as listed by the source, chain 2 of 2): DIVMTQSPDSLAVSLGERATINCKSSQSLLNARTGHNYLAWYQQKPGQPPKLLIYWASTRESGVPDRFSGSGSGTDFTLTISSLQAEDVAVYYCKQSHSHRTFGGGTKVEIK
Experimental: as §1, §2, §3

[14] = biological target: T14, ADI-70327; test: SPR Carterra avidity, CHO anti-ID
T14 construct: anti-CD3 antibody made in CHO cells, captured by anti-human Fc
T14 sequence (VH, as listed by the source limits assumed, chain 1 of 2): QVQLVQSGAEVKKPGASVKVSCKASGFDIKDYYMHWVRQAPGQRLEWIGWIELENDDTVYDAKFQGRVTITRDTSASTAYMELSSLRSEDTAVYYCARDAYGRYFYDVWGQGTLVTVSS
T14 sequence (VL, as listed by the source limits assumed, chain 2 of 2): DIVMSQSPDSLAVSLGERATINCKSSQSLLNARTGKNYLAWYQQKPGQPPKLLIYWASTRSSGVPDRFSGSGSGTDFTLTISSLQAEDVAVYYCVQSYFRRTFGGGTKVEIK
Experimental: as §1, §2, §3

[15] = biological target: T15, ADI-70330; test: SPR Carterra avidity, CHO anti-ID
T15 construct: anti-CD3 antibody made in CHO cells, captured by anti-human Fc
T15 sequence (VH, as listed by the source limits assumed, chain 1 of 2): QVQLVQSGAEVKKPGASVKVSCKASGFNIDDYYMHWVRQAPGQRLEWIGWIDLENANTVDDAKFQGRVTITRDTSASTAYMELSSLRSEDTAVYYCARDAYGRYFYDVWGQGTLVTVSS
Experimental: as §1, §2, §3

[16] = biological target: T16, ADI-67450; test: SPR Carterra avidity, CHO anti-ID
T16 construct: anti-CD3 antibody made in CHO cells, captured by anti-human Fc
T16 sequence (VH, as listed by the source limits assumed, chain 1 of 2): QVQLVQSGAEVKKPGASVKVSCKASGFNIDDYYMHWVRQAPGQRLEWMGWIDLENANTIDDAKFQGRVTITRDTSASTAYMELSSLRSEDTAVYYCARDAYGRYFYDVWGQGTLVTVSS
Experimental: as §1, §2, §3

[17] = biological target: T1, ADI-70326; test: SPR Carterra avidity, CHO anti-ID
Experimental: as §1, §2, §3

[18] = biological target: T17, ADI-76358; test: SPR Carterra avidity, CHO anti-ID
T17 construct: anti-CD3 antibody made in CHO cells, captured by anti-human Fc
T17 sequence (VH, as listed by the source, chain 1 of 2): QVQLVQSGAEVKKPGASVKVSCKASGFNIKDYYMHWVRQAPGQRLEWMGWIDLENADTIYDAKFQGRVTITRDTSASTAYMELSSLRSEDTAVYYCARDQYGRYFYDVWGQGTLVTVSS
Experimental: as §1, §2, §3

[19] = biological target: T18, ADI-74966; test: SPR Carterra avidity, CHO anti-ID
T18 construct: pH-dependent anti-CD3 antibody made in CHO cells
T18 sequence (VL, as listed by the source, chain 2 of 2): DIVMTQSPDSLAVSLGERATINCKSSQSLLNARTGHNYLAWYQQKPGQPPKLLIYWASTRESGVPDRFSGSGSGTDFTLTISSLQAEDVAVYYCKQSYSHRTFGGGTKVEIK
Experimental: as §1, §2, §3

[20] = biological target: T19, ADI-26913 IgG; test: SPR Carterra avidity, CHO anti-ID
T19 construct: anti-CD3 IgG
T19 sequence (VH, as listed by the source limits assumed, chain 1 of 2): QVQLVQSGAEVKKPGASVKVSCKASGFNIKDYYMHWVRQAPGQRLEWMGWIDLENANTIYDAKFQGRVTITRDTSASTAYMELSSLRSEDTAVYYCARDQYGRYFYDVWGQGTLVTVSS
Experimental: as §1, §2, §3

T1 sequence (VH, as listed by the source limits assumed, chain 1 of 2): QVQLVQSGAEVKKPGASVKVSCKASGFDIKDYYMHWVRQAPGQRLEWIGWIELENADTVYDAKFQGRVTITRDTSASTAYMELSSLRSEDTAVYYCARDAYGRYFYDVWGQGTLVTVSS

| Binder | binding result [1] | Kd [2] [nM] | Kd [3] [nM] | Kd [4] [nM] | Kd [5] [nM] | Kd [6] [nM] | Kd [7] [nM] | binding result [8] | binding result [9] | binding result [10] | Kd [11] [nM] | Kd [12] [nM] | Kd [13] [nM] | Kd [14] [nM] | Kd [15] [nM] | Kd [16] [nM] | Kd [17] [nM] | Kd [18] [nM] | Kd [19] [nM] | Kd [20] [nM] |
| --- | --- | --- | --- | --- | --- | --- | --- | --- | --- | --- | --- | --- | --- | --- | --- | --- | --- | --- | --- | --- |
| ADI-34145 IgG (antibody, V domains shown, anti-ID IgG) VH: EVQLLESGGGLVQPGGSLRLSCAASGFTFSSYAMSWVRQAPGKGLEWVSTISGSGGSTYYADSVKGRFTISRDNSKNTLYLQMNSLRAEDTAVYYCARLGGRRGSGSSYYYYYGMDVWGQGTTVTVSS VL: not shown | no binding (tested: up to 200 nM) | 15 | 12 | 14 | 5.6 | 3.5 | 4.2 |  |  |  |  |  |  |  |  |  |  |  |  |  |
| ADI-34134 IgG (antibody, V domains shown) VH: QVQLVQSGAEVKKPGSSVKVSCKASGGTFSSYAISWVRQAPGQGLEWMGGIIPIFGTANYAQKFQGRVTITADESTSTAYMELSSLRSEDTAVYYCARGAPNYYGSGGYDDGWFDPWGQGTLVTVSS VL: EIVLTQSPGTLSLSPGERATLSCRASQSVSSDYLAWYQQKPGQAPRLLIYGASSRATGIPDRFSGSGSGTDFTLTISRLEPEDFAVYYCQQFGRVPTFGGGTKVEIK |  |  |  |  |  |  |  | no binding (tested: up to 200 nM) | no binding (tested: up to 200 nM) | no binding (tested: up to 200 nM) | 0.23 | 0.21 | 1.3 | 1.3 | 0.64 | 0.68 | 1.2 | 0.54 | 0.39 | 0.13 |
